The target of test [1] is T1, FcγRIIb (human, UniProt P31994 43-217, limits assumed).
T1 construct: also called FcγIIB; CD32
T1 sequence: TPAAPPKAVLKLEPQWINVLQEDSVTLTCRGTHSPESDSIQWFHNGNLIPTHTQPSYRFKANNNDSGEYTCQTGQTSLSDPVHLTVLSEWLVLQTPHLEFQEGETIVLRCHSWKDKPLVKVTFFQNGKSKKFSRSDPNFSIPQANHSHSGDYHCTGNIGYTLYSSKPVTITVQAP
The experiment in a line: SPR (Biacore); KD for FcγRIIaH divided by KD for FcγRIIb of the same antibody; column head in Table 52-1.
Excerpt: (§1) Furthermore, KD(IIaR)/KD(IIb) and KD(IIaH)/KD(IIb) in the table respectively represent the value obtained by dividing the KD value of each variant for FcγRIIaR by the KD value of each variant for FcγRIIb, and the value obtained by dividing the KD value of each variant for FcγRIIaH by the KD value of each variant for FcγRIIb. KD(IIb) of the parent polypeptide/KD(IIb) of the altered polypeptide refers to the value obtained by dividing the KD value of the parent polypeptide for FcγRIIb by the KD value of each variant for FcγRIIb.

The target in test [2] is T1, FcγRIIb. The experiment in a line: ratio of SPR KD values, parent IL6R-B3/IL6R-L.
For test [3], the target named is T1, FcγRIIb. As to the kind of experiment: SPR (Biacore), method of Example 14. Background: SPR reads the build-up and loss of mass on a sensor chip optically.
In the next test the target is T2, FcγRIIa type H (human, UniProt P12318 36-217).
T2 construct: also called FcγRIIaH; FcγRIIa(H)
T2 sequence: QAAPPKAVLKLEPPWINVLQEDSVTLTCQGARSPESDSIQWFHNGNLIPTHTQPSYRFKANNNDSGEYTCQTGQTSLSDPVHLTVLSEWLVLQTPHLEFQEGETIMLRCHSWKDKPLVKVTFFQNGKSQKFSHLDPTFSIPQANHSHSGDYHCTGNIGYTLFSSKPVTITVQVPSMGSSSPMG
The experiment in a line: SPR (Biacore), method of Example 14.

The target in the next test is T3, FcγRIa (human, UniProt P12314 16-292, limits assumed).
T3 construct: also called CD64
T3 sequence (P12314 16-292 limits assumed): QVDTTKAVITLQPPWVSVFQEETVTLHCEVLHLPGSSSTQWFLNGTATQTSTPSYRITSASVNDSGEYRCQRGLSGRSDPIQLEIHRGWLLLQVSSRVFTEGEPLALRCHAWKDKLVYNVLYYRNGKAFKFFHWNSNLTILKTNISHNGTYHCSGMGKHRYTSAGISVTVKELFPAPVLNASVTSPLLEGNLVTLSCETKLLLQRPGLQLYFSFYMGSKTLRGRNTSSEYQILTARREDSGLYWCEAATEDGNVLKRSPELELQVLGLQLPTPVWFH
The experiment in a line: SPR (Biacore), method of Example 14.

The next test deals with T4, FcγRIIIa type V (human, UniProt P08637 17-208, limits assumed).
T4 construct: also called FcγRIIIaV; FcγRIIIa(V)
T4 sequence (P08637 17-208 F176V limits assumed): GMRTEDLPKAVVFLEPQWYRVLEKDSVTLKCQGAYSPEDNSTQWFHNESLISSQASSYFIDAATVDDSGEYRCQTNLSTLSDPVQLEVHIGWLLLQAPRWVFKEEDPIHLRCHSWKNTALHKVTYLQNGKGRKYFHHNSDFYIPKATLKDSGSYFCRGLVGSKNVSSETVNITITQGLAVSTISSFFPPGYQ
The experiment in a line: SPR (Biacore), method of Example 14.

In a further test the target is T5, FcγRIIa type R (human, UniProt P12318 36-217).
T5 construct: also called FcγRIIaR; FcγRIIa(R)
T5 chain: T2 sequence with H133R
As to the kind of experiment: SPR (Biacore), method of Example 14.

For test [4], the target named is T1, FcγRIIb. The experiment in a line: SPR (Biacore); KD for FcγRIIaR divided by KD for FcγRIIb of the same antibody; column head in Table 52-1.
Excerpt: as §1

The record followed here is US20200199241A1 (Chugai, published 2020).

Where a chain is given by its changes, count along the chain named.

B1: IL6R-BP191/IL6R-L (antibody, human IgG1)
heavy: QVQLQESGPGLVKPSETLSLTCAVSGHSISHDHAWSWVRQPPGEGLEWIGFISYSGITNYNPSLQGRVTISRDNSKNTLYLQMNSLRAEDTAVYYCARSLARTTAMDYWGEGTLVTVSSASTKGPSVFPLAPSSKSTSGGTAALGCLVKDYFPEPVTVSWNSGALTSGVHTFPAVLQSSGLYSLSSVVTVPSSSLGTQTYICNVNHKPSNTKVDKKVEPKSCDKTHTCPPCPAPDLLGGDSVFLFPPKPKDTLMISRTPEVTCVVVDVSDEDGEVKFNWYVDGVEVHNAKTKPREEQYNSTYRVVSVLTVLHQDWLNGKEYKCKVSNAALPKPIEKTISKAKGQPREPQVYTLPPSRDELTKNQVSLTCLVKGFYPSDIAVEWESNGQPENNYKTTPPVLDSDGSFFLYSKLTVDKSRWQQGNVFSCSVMHEALHNHYTQESLSLSP
light: DIQMTQSPSSLSASVGDRVTITCRASQDISSYLNWYQQKPGKAPKLLIYYTSRLHSGVPSRFSGSGSGTDFTFTISSLQPEDIATYYCQQGNTLPYTFGQGTKVEIK
notes: Anti-IL-6R human IgG1 variant; copies: 2 + 2
Usually Kd stands for a measure of binding affinity in units of concentration. Turning to B1, in the test with FcγRIIb [1], the “KD(IIaH)/KD(IIb)” value amounted to 185. For the same molecule, the “KD(IIb) of the parent polypeptide/KD(IIb) of altered polypeptide” value (shortened to “KD(IIb) … of altered polypeptide”) with FcγRIIb [2] turned out to be 21.2 fold. Moreover, the Kd with FcγRIIb [3] amounted to 0.15 µM; with FcγRIIa type H, 27 µM; with FcγRIa it was 0.004 µM; with FcγRIIIa type V, 49 µM; with FcγRIIa type R, 3 µM. Also, the “KD(IIaR)/KD(IIb)” value with FcγRIIb [4] is 20.3.

B2: IL6R-BP196/IL6R-L (antibody, human IgG1)
heavy: B1 heavy with D235E, L236Y
light: B1 light
notes: as for B1
Regarding B2, the “KD(IIaH)/KD(IIb)” value with FcγRIIb [1] was 85.2. The “KD(IIb) … of altered polypeptide” value with FcγRIIb [2] was 13.9 fold. Further, the Kd came out at 0.22 µM with FcγRIIb [3]; 19 µM with FcγRIIa type H; 0.014 µM with FcγRIa; 51 µM with FcγRIIIa type V; 3 µM with FcγRIIa type R. In the test with FcγRIIb [4], the “KD(IIaR)/KD(IIb)” value was found to be 13.4.

B3: IL6R-BP189/IL6R-L (antibody, human IgG1)
heavy: B1 heavy with D235E, G239D
light: B1 light
notes: as for B1
On to B3, for which the “KD(IIaH)/KD(IIb)” value with FcγRIIb [1] turned out to be 284. Moreover, the “KD(IIb) … of altered polypeptide” value in the test with FcγRIIb [2] turned out to be 41.8 fold. Besides, the Kd in the test with FcγRIIb [3] worked out at 0.074 µM; with FcγRIIa type H, 21 µM; with FcγRIa, 0.042 µM; in the test with FcγRIIIa type V, 49 µM; in the test with FcγRIIa type R, 1.4 µM. The “KD(IIaR)/KD(IIb)” value with FcγRIIb [4] was 18.5.

B4: IL6R-BP186/IL6R-L (antibody, human IgG1)
heavy: B1 heavy with L236Y, G239D, D270H, Y298D
light: B1 light
notes: as for B1
Take B4: the “KD(IIaH)/KD(IIb)” value with FcγRIIb [1] turned out to be 152. The “KD(IIb) … of altered polypeptide” value with FcγRIIb [2] amounted to 50.7 fold. The Kd in the test with FcγRIIb [3] amounted to 0.061 µM; with FcγRIIa type H, 9.3 µM; in the test with FcγRIa it was 0.045 µM; in the test with FcγRIIIa type V, 49 µM; with FcγRIIa type R, 0.96 µM. Moreover, the “KD(IIaR)/KD(IIb)” value in the test with FcγRIIb [4] worked out at 15.8.

B5: IL6R-BP190/IL6R-L (antibody, human IgG1)
heavy: B1 heavy with D235E, G239D, A328K
light: B1 light
notes: as for B1
As to B5, the “KD(IIaH)/KD(IIb)” value in the test with FcγRIIb [1] amounted to 293. Moreover, the “KD(IIb) … of altered polypeptide” value in the test with FcγRIIb [2] stood at 53.2 fold. Moreover, the Kd with FcγRIIb [3] amounted to 0.058 µM; in the test with FcγRIIa type H, 17 µM; with FcγRIa, 0.063 µM; with FcγRIIIa type V it was 45 µM; with FcγRIIa type R, 1.1 µM. The “KD(IIaR)/KD(IIb)” value in the test with FcγRIIb [4] is 12.3.

B6: IL6R-BP187/IL6R-L (antibody, human IgG1)
heavy: B1 heavy with D235E, L236Y, D270H
light: B1 light
notes: as for B1
For the molecule B6, the “KD(IIaH)/KD(IIb)” value in the test with FcγRIIb [1] was 62.3. Further, the “KD(IIb) … of altered polypeptide” value in the test with FcγRIIb [2] was 10.7 fold. In addition, the Kd with FcγRIIb [3] is 0.29 µM; with FcγRIIa type H, 18 µM; with FcγRIa it was 0.025 µM; with FcγRIIIa type V, 56 µM; with FcγRIIa type R it was 2.8 µM. The “KD(IIaR)/KD(IIb)” value with FcγRIIb [4] was found to be 9.7.

B7: IL6R-BP197/IL6R-L (antibody, human IgG1)
heavy: B1 heavy with L236Y, G239D, Y298D, A328D
light: B1 light
notes: as for B1
Regarding B7, the “KD(IIaH)/KD(IIb)” value with FcγRIIb [1] is 209. In addition, the “KD(IIb) … of altered polypeptide” value with FcγRIIb [2] was 53.7 fold. For the same molecule, the Kd in the test with FcγRIIb [3] was found to be 0.058 µM; with FcγRIIa type H, 12 µM; in the test with FcγRIa it was 0.019 µM; with FcγRIIIa type V it was 33 µM; with FcγRIIa type R, 0.98 µM. Further, the “KD(IIaR)/KD(IIb)” value in the test with FcγRIIb [4] amounted to 17.1.

B8: IL6R-BP188/IL6R-L (antibody, human IgG1)
heavy: B1 heavy with G239D, A328K
light: B1 light
notes: as for B1
As for B8, the “KD(IIaH)/KD(IIb)” value with FcγRIIb [1] stood at 350. Also, in the test with FcγRIIb [2], the “KD(IIb) … of altered polypeptide” value is 67.6 fold. Also, the Kd with FcγRIIb [3] was determined as 0.046 µM; with FcγRIIa type H, 16 µM; with FcγRIa, 0.021 µM; with FcγRIIIa type V, 58 µM; with FcγRIIa type R, 1 µM. Moreover, the “KD(IIaR)/KD(IIb)” value with FcγRIIb [4] was 21.9.

B9: IL6R-BP203/IL6R-L (antibody, human IgG1)
heavy: B1 heavy with D235E, G239D, D270H, A328K, K332R
light: B1 light
notes: as for B1
B9: the “KD(IIaH)/KD(IIb)” value in the test with FcγRIIb [1] stood at 227. For the same molecule, in the test with FcγRIIb [2], the “KD(IIb) … of altered polypeptide” value was determined as 63.7 fold. For the same molecule, the Kd with FcγRIIb [3] came out at 0.049 µM; in the test with FcγRIIa type H, 11 µM; in the test with FcγRIa it was 0.18 µM; with FcγRIIIa type V, 72 µM; with FcγRIIa type R, 0.99 µM. For the same molecule, the “KD(IIaR)/KD(IIb)” value with FcγRIIb [4] was found to be 20.5.

B10: IL6R-BP184/IL6R-L (antibody, human IgG1)
heavy: B1 heavy with D270H, A328K
light: B1 light
notes: as for B1
Turning to B10, the “KD(IIaH)/KD(IIb)” value with FcγRIIb [1] was 238. Moreover, the “KD(IIb) … of altered polypeptide” value with FcγRIIb [2] was 24.5 fold. For the same molecule, the Kd with FcγRIIb [3] is 0.13 µM; with FcγRIIa type H, 30 µM; with FcγRIa, 0.011 µM; with FcγRIIIa type V it was 66 µM; with FcγRIIa type R, 2.3 µM. For the same molecule, the “KD(IIaR)/KD(IIb)” value with FcγRIIb [4] is 18.2.

B11: IL6R-BP183/IL6R-L (antibody, human IgG1)
heavy: B1 heavy with L236Y, D270H
light: B1 light
notes: as for B1
Turning to B11, in the test with FcγRIIb [1], the “KD(IIaH)/KD(IIb)” value was 62.5. Further, the “KD(IIb) … of altered polypeptide” value with FcγRIIb [2] is 12.9 fold. Besides, the Kd with FcγRIIb [3] was 0.24 µM; with FcγRIIa type H it was 15 µM; with FcγRIa, 0.017 µM; with FcγRIIIa type V it was 56 µM; in the test with FcγRIIa type R it was 2.6 µM. For the same molecule, in the test with FcγRIIb [4], the “KD(IIaR)/KD(IIb)” value stood at 10.7.

B12: IL6R-BP185/IL6R-L (antibody, human IgG1)
heavy: B1 heavy with L236Y, G239D, D270H
light: B1 light
notes: as for B1
For the molecule B12, in the test with FcγRIIb [1], the “KD(IIaH)/KD(IIb)” value turned out to be 105. Further, the “KD(IIb) … of altered polypeptide” value in the test with FcγRIIb [2] amounted to 44.5 fold. In addition, the Kd with FcγRIIb [3] stood at 0.069 µM; in the test with FcγRIa, 0.063 µM; with FcγRIIIa type V it was 36 µM; with FcγRIIa type R, 0.88 µM. Also, the “KD(IIaR)/KD(IIb)” value in the test with FcγRIIb [4] was 12.6.

B13: IL6R-BP195/IL6R-L (antibody, human IgG1)
heavy: B1 heavy with L236Y, G239D, Y298D
light: B1 light
notes: as for B1
For B13, in the test with FcγRIIb [1], the “KD(IIaH)/KD(IIb)” value is 201. For the same molecule, in the test with FcγRIIb [2], the “KD(IIb) … of altered polypeptide” value is 62 fold. Also, the Kd stood at 0.05 µM with FcγRIIb [3]; 10 µM with FcγRIIa type H; 0.023 µM in the test with FcγRIa; 31 µM with FcγRIIIa type V; 0.91 µM with FcγRIIa type R. The “KD(IIaR)/KD(IIb)” value in the test with FcγRIIb [4] was 18.2.

B14: IL6R-BP194/IL6R-L (antibody, human IgG1)
heavy: B1 heavy with L236Y, G239D
light: B1 light
notes: as for B1
Turning to B14, in the test with FcγRIIb [1], the “KD(IIaH)/KD(IIb)” value stood at 164. Also, the “KD(IIb) … of altered polypeptide” value in the test with FcγRIIb [2] was 59.4 fold. The Kd with FcγRIIb [3] is 0.052 µM; with FcγRIIa type H, 8.5 µM; in the test with FcγRIa, 0.024 µM; in the test with FcγRIIIa type V, 27 µM; in the test with FcγRIIa type R it was 0.82 µM. Besides, the “KD(IIaR)/KD(IIb)” value with FcγRIIb [4] came to 15.8.
